Source: paper PMC5873240

Key:
Kv7.2-hABCD = test: NMR spectra
Kv7.2-hAB[Δ6L] = test: NMR solution structure

| Substance | stoichiometry N (Kv7.2-hABCD) | stoichiometry N (Kv7.2-hAB[Δ6L]) |
| --- | --- | --- |
| Kv7.2-hABCD (domain or fragment) | 4 |  |
| calmodulin (from UniProt P0DP23 1-149) (natural protein) |  | 1 |
